Experimental data from patent US20230398228A1, “ERIBULIN-BASED ANTIBODY-DRUG CONJUGATES AND METHODS OF USE” (EISAI R&D MANAGEMENT CO., LTD., priority 2016, published 2023).

What was measured:
[1] = DAR analysis by LC-MS (UPLC/ESI-MS, reverse-phase LC-MS); conditions: reverse-phase LC-MS
Experimental: ADCs were deglycosylated using PNGase F (New England BioLabs). G7 buffer (10 μL) and PNGase F (2 μL) were added to the mAb (90 μL, 1 mg/mL in DPBS). The reaction was incubated in a Discover microwave (CEM) for 2 cycles: (1) microwave power 10 W, 37° C., 10 min, followed by a 5-min pause; (2) microwave power 2 W, 37° C., 10 min. A portion of the sample was reduced by adding DTT to a final concentration of 20 mM, followed by incubation at 60° C. for 3 min. Samples were then analyzed using a Waters Acquity Ultra Performance Liquid Chromatography (UPLC) and quadrupole time of flight (Q-Tof) Premier mass spectrometer. Samples (0.5-2 μg each) were injected onto a MassPrep™ micro desalting column at 65° C., eluted from the column with a 5 min equilibration in 95% of mobile phase A, a 10 min gradient (5-90% B), and a 10 min re-equilibration in 95% of mobile phase A, at 0.05 mL/min. Mobile phase A was 0.1% formic acid in water. Mobile phase B was 0.1% formic acid in acetonitrile. The Q-Tof mass spectrometer was run in positive ion, V-mode with detection in the range of 500-4000 m/z. The source parameters were as follows: capillary voltage, 2.25 kV (intact antibody)-2.50 kV (reduced antibody); sampling cone voltage, 65.0 V (intact antibody) or 50.0 V (reduced antibody); source temperature, 100° C.; desolvation temperature, 250° C.; desolvation gas flow, 550 L/hr. The protein peak was deconvoluted using the MassLynx® MaxEnt 1 function. Relative intensities of each unconjugated, singly-conjugated, and multiply-conjugated heavy and light chain masses were combined to calculate the overall DAR using the formula:
2[[ILC+1+2(ILC+2)+3(ILC+3)+ . . . n(ILC+n)]/ΣILCtot]+2[[IHC+1+2(IHC+2)+3(IHC+3)+ . . . n(IHC+n)]/ΣIHCtot]
where ILC+1 is mass intensity of light chain conjugated with one cytotoxin, ILC+2 is mass intensity of light chain conjugated with two cytotoxins, etc. IHC are the intensities from the corresponding conjugated heavy chains, and ΣILCtot and ΣIHCtot are the combined intensities of all unconjugated and conjugated light chains and heavy chains, respectively.
DAR was also analyzed using an LC-MS method with a Waters Alliance HPLC with SQD/PDA detection. Samples were injected onto a Proteomix RP-1000 column ([…], 1000A, 4.6 mm×15 cm, Sepax) at 65° C., and eluted with a 3 min equilibration in 25% B, a 27 min linear gradient from 25%-55% B, a 5 min hold at 55% B, a 1 min change to 90% B, a 5 min hold at 90% B, a 1 min change back to 25% B, and a 5 min reequilibration at 25% B. Mobile phase A was 0.1% TFA in water, and mobile phase B was 0.1% TFA in acetonitrile. The elute was then split (10:1) into PDA and SQD detectors. The SQD detector was set up as ES positive, capillary voltage at 3.2 kV, cone voltage at 40 V, extractor at 3 V, and RF lens at 0.2 V, source temperature at 150° C., and desolvation temperature at 250° C. Mass data was acquired at 200-2000 m/z for 40 min, continuum mode, scan time 1 second. Data was analyzed and deconvoluted offline using MassLynx and MaxEnt1. DAR was calculated using the formula:
2[[AUCLC+1+2(AUCLC+2)+3(AUCLC+3)+ . . . n(AUCLC+n)]/[…]]+2[[AUCHC+1+2(AUCHC+2)+3(AUCHC+3)+ . . . n(AUCHC+n)]/ΣAUCHCtot]
where AUCLC+1 is the area under the curve of the light chain peak conjugated with one cytotoxin, AUCLC+2 is the area under the curve of the light chain peak conjugated with two cytotoxins, etc. AUCHC is the area under the curve of the corresponding heavy chains, and ΣAUCLCtot and ΣAUCHCtot are the combined area under the curve of all unconjugated and conjugated light chains and heavy chains, respectively.

human mesothelin = human mesothelin (Homo sapiens, UniProt Q13421); assay: ELISA, mesothelin; type: binding; conditions: MORAb-009 and its ADCs; for EC50: read-out: Antigen Binding ELISA, EC50
Experimental: Recombinant human mesothelin was diluted to 1 μg/mL in coating buffer (50 mM carbonate-bicarbonate buffer, pH 9.6), and coated onto 96-well Maxisorp black plates (Thermo, Cat No. 43711, 100 μL/well) at 4° C., overnight. Coating solution was discarded and the plates were washed three times using 1×PBS with 0.05% Tween-20 (PBST) buffer. Plates were blocked in 300 μL blocking buffer (1% BSA in PBST) at room temperature for 2 hours on an orbital shaker. […] Blocking buffer was discarded and 100 μL/well of diluted antibody was added to the plates. Plates were incubated at room temperature for 2 hours on an orbital shaker. Antibody solution was discarded and plates were washed three times using PBST. 100 μL/well of goat-anti-human IgG (H+L)-HRP (1:10,000 dilution in blocking buffer) solution was added to the plates, and plates were incubated at room temperature for 1 hour on an orbital shaker. Secondary antibody solution was discarded and plates were washed three times using PBST. 100 μL/well of QuantaBlu fluorogenic peroxidase substrate working solution (Thermo, Cat No. 15169) was added to the plates, and plates were incubated at room temperature for 30 min. Fluorescence was read at excitation 325 nm/emission 420 nm using a SpectraMax M5 (Molecular Devices). Data was analyzed using SoftMaxPro 5.4.2 software with 4-parameter fitting.

A431 cells = assay: Crystal Violet cytotoxicity assay (Example 4), A431 (parental); type: cell-based, human; conditions: mean of replicate experiments, read-out: Cytotoxicity IC50 (nM), A431 (FR^neg, MSLN^neg)

| Substance | DAR (LC-MS) [1] | Antigen Binding ELISA, EC50 (human mesothelin) | EC50 (human mesothelin) | IC50 (A431 cells) |
| --- | --- | --- | --- | --- |
| MORAb009-PEG2-eribulin | 4.55 | 0.00884 µg/mL | 0.06 nM | > 100 nM |
| MORAb009-PEG4-eribulin | 4.48 | 0.0116 µg/mL | 0.08 nM | > 100 nM |
